Measured values from the nanobody polyreactivity screen of Harvey et al. (2022).

Experiment: yeast display, Sf9 membrane polyspecificity reagent, FACS + sequencing; frameworks hold sequencing errors
In short: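 Synthetic nanobody libraries on Saccharomyces cerevisiae BJ5465 were galactose-induced for 36–48 hours, stained 1 hour at 4 °C with 10% biotinylated, detergent-solubilized Sf9 membrane reagent and enriched on streptavidin microbeads. FACS then separated cells into low and high (top ~1%) gates by anti-HA (expression) and streptavidin (reagent binding) fluorescence. Genes were colony-PCR amplified, MiSeq 2 × 250 sequenced and CDR-length filtered. A clone's polyreactivity label is that of its gate of origin.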

| Sequence | polyreactivity (PSR sort gate) |
| --- | --- |
| QVQLQESGGGLVQAGGSLRLSCAASGSIFVSVTMGWYRQAPGKERELVASIGRGSTTNHADSVKGRFTICRDNAKNIVYLLMNSLKPEDTAVYYCAALESYGKYHGYWGQGTQVTVSS | low polyreactivity |
| QVQLQESGGGLVQAGGSLRLSCAASGSIFYWPWMGWYRQAPGREREFVATITTGSNTYYADIMKGHLTISRDNARNTVYLQMKSLKPEDTAVYYCAVVGDGEIEHRYWGQGTQVTVSS | high polyreactivity |
| QVQLQESGGGLVQAGGSLRLSCAASGSISAVGAMGWYRQAPGKEREFAASVNWGTNTNYADSVKGRFTISRDNAKNTLNLQMNSLKPEDTAVYYCAVQPDWETRHDYWGHGTQVTVSS | low polyreactivity |
| QVQLQESGGGLVQAGGSLRLSCAASGSISPYYDMGWYRQAPGKEREFVAGISGGAITYYADSVKGRFTISRDNAKNTVYLQMNSLKPEDTAVYYFAADTGVYQYHSYWGQGTQVTVSS | low polyreactivity |
| QVQLQESGGGLVQAGGSLRLSCAASGTIFTARFMGWYRQAPGKERELVATITDGGNTNHADSVKGRFTISRDNAKNTVYLHMNSLKPEDAAVYYCAAGEVDNDTLLYWGQGSQVTVSS | low polyreactivity |
| QVQLQESGGGLVQAGGSLRLSCAASGTISDRAGMGWYRQAPAKNAIVANIDRGTNTNYADSVKGRFTISRDNAKNTVYLQMNSLKPEDTAVYNCAADGRYYIYLDYWGQGTQVTVSS | low polyreactivity |
| QVQLQESGGGLVQAGGSLRLSCAASGTISQEDWKGRYRQAPGKEREFVAAIGLGSNTNYADSLKGRFTISRDNAKNSVYLQMNSLKPEDTAVYYCAVSVWQYSDHVYRGQGTQVTVSS | low polyreactivity |
| QVQLQESGGGLVQAGGSLRLSCAASGTISVAAYMAWYRQAPGKEREYVASIGYGATTYYADSEKGTFTISRDNAKNTVYLQMNSLKPGDTAVYYCAVDRSPQYRYLYYWGQGTQVTVCS | high polyreactivity |
| QVQLQESGGGLVQAGGSLRLSCAASGTITVLYKMGWFRQAPGKEREFVASMNYGTSTYYADSVKGRFTVSRDSAKNTVYLQMNSLKPEDTAVYYCAAAYRWQDVYRYWGQGTQVTVSS | low polyreactivity |
| QVQLQESGGGLVQAGGSLRLSCAASGYIFPRIYMGWYRQAPGKEREFDAGISYDAITNYADSVKGRFTISLDNAKNTVYLQMNSLNPEYTAVYYCAVSYYGTPLVTYWGQGTQVTVSS | high polyreactivity |
| QVQLQESGGGLVQAGGSLRLSCAASGYIFVDYTMGWHRQAPGKERELVATINLGATSYYADSVKGRFTISRDNAKNTVYQQMNSLKPEDTAVYYCAVALQQVNYFPYWCQGTQVTVSS | low polyreactivity |
| QVQLQESGGGLVQAGGSLRLSCAASGYISAGRQMGWYRQAPGKEREFVATINGGATTNYADSVKGRFTISRDNAKNSVYLQMNSLKPEDTAVYYCAAVIWYVQDYTYWGQGAQVTVSS | high polyreactivity |
| QVQLQESGGGLVQAGGSLRLSCAASGYISHADEMGWNRQAPGKEHELVASISNGGSTNYADSVKGRFTISRDNAKNTVYLQMNSLKSEDTGVYYCAAWTGQVDIHYYWGQGTQVPVSS | low polyreactivity |
| QVQLQESGGGLVQAGGSLRLSCAASGYISHADEMGWYRQAPGKEHELVASISNGGSTNYADSVKGRFTISRDNAKNTVYLQMNSLKSEDTAVYYCAAWTGQVDIHYYWGLGTQVTVSS | low polyreactivity |
| QVQLQESGGGLVQAGGSLRLSCAASGYISHADEMGWYRQAPGKEHELVASISNGGSTNYADSVKGRFTISRDNAKNTVYLQRNSLKSEDTAVYYCAAWTGQVDIHYYWGQGTQVTVSS | low polyreactivity |
| QVQLQESGGGLVQAGGSLRLSCAASGYISQSSVMGWYRQAPGKEREFVASISYGATTYYADSVKGRYTISRDNAKDTVYLQTNSPKPEVTAVYYCAVCVKRGFSHRYWGQGTQVTVSS | high polyreactivity |
| QVQLQESGGGLVQAGGSLRLSCAASGYISTFSSEMGWYRQAPGKERELVASIAPGCTTSYADSVKGRFTISRDKAKNTVYLQMNILKPEDTAVYFCAVVYTVPASFGYWGQGTQVTVIS | high polyreactivity |
| QVQLQESGGGLVQAGGSLRLSCAASSNNTTLDVMCWYRQAPGKEREFVASIGSGGITNYADSVKGRFTISRDNAKNTVYLQMNSLKPEDTAVYYCAVLNQAYTDLIYWGQGTQVTVSS | high polyreactivity |
| QVQLQESGGGLVQAGGSLRLSCAATGRTFRYNTMGWYRKATGKERELVARITWSGGSTYYADSVKGRFTISRDNAKNTVYLQMNSLKPEDTAVYYCAAVPILVYRWFQSYTGDYDYWGQGTQVTVSS | low polyreactivity |
| QVQLQESGGGLVQAGGSLRLSCEASGTIFKYYTMGWYRQAPGKEREFVAGINVGSTTNYADIVKGRFTISRDNAKNTVYLQMNSLKPEDTAVYYCAAYFIFLYYHDYWGLGTQVTVSS | low polyreactivity |
| QVQLQESGGGLVQAGGSLRLSCSASGNISVTGVMGWYRQAPGKERELVPSIGIGGTTYYADSVKGRFSISRDNATITVYLQMNSLKPQDTAVYYCAARYLYYAYSYWGQGTQVTVSS | low polyreactivity |

| Sequence | polyreactivity (PSR sort gate) |
| --- | --- |
| QVQLQESGGGLVQAGGSLRMSCAASGSISSRDAMGLYRQAPGKEREFVATIASGTTTYYADSVKGSFTISRDNAENTVYLQTNSLKPEDTAVYYCAAPTIQIYPFYYWGQGTQVTVSS | high polyreactivity |
| QVQLQESGGGLVQAGGSLRPSCAASGSLSDGVPMGWYRQAPGEERELVATTVLGATTNYADSVKGRFTISRGNAKNTVYLQMNSLKPEETAVYYCAAPLRYDKGFSYWGQGTQVTVSS | low polyreactivity |
| QVQLQESGGGLVQAGGSLRQSYAASGYIFPSLAMGWYRQAPGKEREFVAAIGRGSTNNYADSLKGRFTISRDNEKNTAYQQMNSLKPEVTAVYYCAADASPLTRHLYWGQGTQVTVSS | low polyreactivity |
| QVQLQESGGGLVQAGGSLRRSCAATGSIFYRLKMGWHRQATGKERELVATIDPGSNTYYADSVKGSFTMSRDNAKNTVYPQMYSLKPEDTAVYYCAVSAHWTIHYYYWGQGTQVTVSS | high polyreactivity |
| QVQLQESGGGLVQAGGSLSLSCAASGSISAVGAMGWYRKAPGKERELAASVNWCTNTNYADSVKGRFTISRDNAKNTLYLQMNSLKPEDTAVYYCAVLPDWETRHDYWGHGTQVTVSS | low polyreactivity |
| QVQLQESGGGLVQAGGSPRLSCAASGTITRQYYMGWYRQAPGKERGFVAGIKSGSTTYYADNVKGCFTISRDNAKNAAYLQMNSLKPEDTAVYYCAIRPSYTIPYWYWGQGTQVTVSS | high polyreactivity |
| QVQLQESGGGLVQAGGSPRLSCAESDNIYPDSVICWYRQAPGKERELVATIGFGATTNYADSVKGRLTISRDNAKNTVYLQMNSLKPEDTAVYYCAADPLNYEYFCYWGQGTQVTVSS | low polyreactivity |
| QVQLQESGGGLVQAGGSQRLSCAASGYIFYFQYMGWYRQATGKEREFVAAISDGANTNYADSVKGRFTISRDNAKNTEYLQMNSLKPEDTAVYYCAVYADENYYFIYWGQGTQVTVSS | low polyreactivity |
| QVQLQESGGGLVQAGGTLRLSCAASGSFSADEDMGWYRQAQGKESEFVAGISVGGNTNYADSVKGRFTISRENAKNTVYLQINSLKPEDTAVYYCAVLQDVYDALDYWAQGTQVTVSS | high polyreactivity |
| QVQLQESGGGLVQAVGSLRLSCAASGNISDYYDMGWYRQAPGKERKIVAGIDFGAITNYADSVKGRFTISRDNAKNTEYLQMSSLKPEDTAVYYCAAGVYDWYAYDYWGQGTQVTVSS | high polyreactivity |
| QVQLQESGGGLVQEGGSLRLSCAESGNISPQADMGWYRQAPGKERELVASIGTGGTTNYADSVTGRFTISRDNAKNTVYLQMNSLKPDDTAFYYCAAVRYEYNPYDYWGQGTQVTVSS | low polyreactivity |
| QVQLQESGGGLVQGGGSLRLSCAASGSIYRYWYMGWYRQAPGKERELVASITEGATTNYAYSVKAALPLAAITRNTVYLQMDSMKPEDTAVYYRAASFGSTYDLVYWGQGTQVTVSS | high polyreactivity |
| QVQLQESGGGLVQPGGSLRLSCAASGYISSWYPMGWYPQAPGKEREFVATIAPGATTYYADSVKGRFTISRDYANNTVYLQMNSLKPEDTAVYYLAAGPENKDFYSYWCQGTQVTVSS | low polyreactivity |
| QVQLQESGGGLVQVGGSQRLSCAASGNIFFNYAMGWYRHAQGKEREFDASINHGTSINYEDSVKGRFTISRDNAKNTVYLQMNSLKPEDTAVYYCAADLSWTDNLFYWGQGTQVTVSS | low polyreactivity |
| QVQLQESGGGLVQVGVSQRLSCAASGNIFYNYAMGWYRHAQGKEREFDATINHCTSINYADSVKGLFTISRDNAKKTVYLQMNSLKPEDTAVYYCAADLSWTDNLFYWGQGTQVTVSS | low polyreactivity |
| QVQLQESGGGQVQAGGSLRLSCAASGYISTHYFMGWYRQAPGKDREFVAGISNGSITNYADSVKGRFTISRDNARNTVYLQMNSLKPEDTAVYYGAAFEWTYVRFGYWGQGTQVTVSG | high polyreactivity |
| QVQLQESGGGQVQAGGSLRWSCAASGYISTHYFMGWYRQAPGKDREFVAGISNGSITNYADSVKGRFTISRDNARNTVYLQMNSLKPEDTAVYYVAAYQWTYVRFGYWGQGTQVTVSG | high polyreactivity |
| QVQLQESGGHLEQSGGSLRLSCTASGTISDVRVMGWYRQAPGKERELVATISYVTITYYADSVKGRFTISRDSEKHRVSADDEPETGRYRGVLLRYYWGLGTQVTVSS | low polyreactivity |
| QVQLQESGGLVQAGGLRLSCAASGSVSYQEAMGWYRQAPGKERELVATISFGANTNYADSVKGRFTISRDNAKNTVYLQMNSLKPEDTAVYYCAADAYRWWVRYDYWGQGTQVTVSS | low polyreactivity |
| QVQLQESGGLVQAGGLRLSCAASGSVSYQEAMGWYRQAPGKERELVATISFGANTNYAESVKGRFTISRDNAKISLYLQMNSLQPEDTSLYYWAAECLFDDYYGYWGQGTQVTVSS | low polyreactivity |
